The results in this text go back to patent US20260347496 (published 2026).

What is called EC50 is the concentration giving half of the maximal effect. A higher EC50 goes with weaker potency. Broadly, the Kd is the equilibrium constant for the complex coming apart. A higher Kd goes with weaker binding.

Residue numbers refer to the chain shown, from its start. Several values for one entry are separate records, joined by “and”; a condition that tells them apart may be missing. Equal values may be shown once.

T1: CD24 (cell surface) (human)
T1 chain: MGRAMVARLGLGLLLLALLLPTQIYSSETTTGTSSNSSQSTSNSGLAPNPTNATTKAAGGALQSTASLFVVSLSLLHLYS

T2: CD24 biotinylated (ACRO CD4-H82E9) (human, UniProt P25063)
T2 chain: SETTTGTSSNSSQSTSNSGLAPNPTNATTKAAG

B1: P6373 (antibody, V domains shown)
VH: EVKFEESGGGLVQPGGSIKLSCAASGVTFSEAWMDWVRQSPEKGLEWVAEIRDKPNSYVTYYAESVKGRFTISRDDSKSRVYLQMNNLRTEDTGIYYCTGAMDYWGQGTSVTVSS
VL: DIVMTQTPLSLSVTIGQPASISCKSSQSLLYSNGKTYLNWLQQRPGQSPKRLIYQVSKLDPGIPDRFSGSGSETDFTLKISRVEAEDLGIYYCMQGSSLPWTFGGGTKLEIKR
B2: huG14-217 (antibody, V domains shown)
VH: EVQLVESGGGLVKPGGSLRLSCAASGLTFSNYWGNWVRQAPGKGLEWVALIRLYSDNYAIHYAESVKGRFTISRDDSKSTVYLQMNSLKTEDTAVYYCTTGTDYWGQGTTVTVSS
VL: DVVMTQSPLSLPVTPGRPASISCKSSHSLLYSNGRTYLNWLLQKPGQSPQRLIYLVSKLDSGVPDRFSGSGSGTDFTLKISRVEAEDLGVYYCIQGTYFPYTFGQGTKLEIK
B3: huG14-230 (antibody, V domains shown)
VH: B2 VH with Y104N
VL: B2 VL with R35K
B4: huG14-232 (antibody, V domains shown)
VH: B2 VH with Y104N
VL: B2 VL with P12Y
B5: huG14-301 (antibody, V domains shown)
VH: B2 VH with Y104N
VL: B2 VL with P15L, R17Q, G34K, L42Q, K44R, Q50R
B6: huG14-125 (antibody, V domains shown)
VH: B2 VH
VL: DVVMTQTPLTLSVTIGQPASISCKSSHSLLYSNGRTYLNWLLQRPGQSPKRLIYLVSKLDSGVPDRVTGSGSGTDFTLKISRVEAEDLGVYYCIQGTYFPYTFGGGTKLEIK
B7: huG14-131 (antibody, V domains shown)
VH: B2 VH with G34M, Y104N
VL: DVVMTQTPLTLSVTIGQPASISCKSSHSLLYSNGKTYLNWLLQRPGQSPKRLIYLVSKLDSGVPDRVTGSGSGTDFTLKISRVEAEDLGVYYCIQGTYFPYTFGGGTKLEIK
B8: huG14-124 (antibody, V domains shown)
VH: B2 VH
VL: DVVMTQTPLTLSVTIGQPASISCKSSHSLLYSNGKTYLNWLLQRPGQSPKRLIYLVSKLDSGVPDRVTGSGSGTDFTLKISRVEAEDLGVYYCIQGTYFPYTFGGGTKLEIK
B9: huG14-216 (antibody, V domains shown)
VH: B2 VH
VL: B2 VL with R35K
B10: huG14-234 (antibody, V domains shown)
VH: B2 VH
VL: B2 VL with G34K, R35K
B11: huG14-235 (antibody, V domains shown)
VH: B2 VH with Y104N
VL: B2 VL with P12Y, G34K
B12: G14 (antibody, V domains shown)
VH: EVKLEESGGGLVQPGGSMKLSCVASGLTFSNYWMNWVRQSPEKGLEWVALIRLYSDNYAIHYAESVKGRFTISRDDSKSSVYLQMNNLRAEDTGIYYCTTGTDYWGQGTTLTVSS
VL: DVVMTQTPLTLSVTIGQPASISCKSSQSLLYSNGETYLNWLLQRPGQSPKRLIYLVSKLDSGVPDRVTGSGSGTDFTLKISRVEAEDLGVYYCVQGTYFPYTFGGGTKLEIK
B13: huG14-1 (antibody, V domains shown)
VH: B2 VH with G34M
VL: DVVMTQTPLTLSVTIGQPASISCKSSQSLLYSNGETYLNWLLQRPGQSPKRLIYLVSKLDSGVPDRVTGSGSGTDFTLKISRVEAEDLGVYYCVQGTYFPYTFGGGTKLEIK
B14: huG14-130 (antibody, V domains shown)
VH: B2 VH with G34M, Y104N
VL: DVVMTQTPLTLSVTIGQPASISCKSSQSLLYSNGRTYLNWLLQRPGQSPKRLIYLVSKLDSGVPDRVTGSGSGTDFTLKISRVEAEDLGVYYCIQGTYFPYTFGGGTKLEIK
B15: huG14-124-2 (antibody, V domains shown)
VH: B2 VH
VL: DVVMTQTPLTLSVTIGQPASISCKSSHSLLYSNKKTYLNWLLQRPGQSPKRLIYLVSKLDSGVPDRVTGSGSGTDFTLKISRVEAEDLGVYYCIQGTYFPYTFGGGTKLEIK
B16: huG14-124-5 (antibody, V domains shown)
VH: B2 VH
VL: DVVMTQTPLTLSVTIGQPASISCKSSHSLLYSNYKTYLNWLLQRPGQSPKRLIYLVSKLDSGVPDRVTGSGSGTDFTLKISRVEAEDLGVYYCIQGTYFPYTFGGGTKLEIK
B17: huG14-124-9 (antibody, V domains shown)
VH: B2 VH
VL: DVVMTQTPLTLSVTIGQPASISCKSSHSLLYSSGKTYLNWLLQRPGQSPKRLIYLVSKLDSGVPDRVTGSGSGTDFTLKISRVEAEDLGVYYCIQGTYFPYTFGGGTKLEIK
B18: huG14-124-6 (antibody, V domains shown)
VH: B2 VH
VL: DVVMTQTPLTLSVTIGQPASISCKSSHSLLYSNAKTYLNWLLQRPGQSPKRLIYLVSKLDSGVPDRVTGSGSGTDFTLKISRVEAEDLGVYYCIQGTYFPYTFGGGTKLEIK
B19: huG14-124-7 (antibody, V domains shown)
VH: B2 VH
VL: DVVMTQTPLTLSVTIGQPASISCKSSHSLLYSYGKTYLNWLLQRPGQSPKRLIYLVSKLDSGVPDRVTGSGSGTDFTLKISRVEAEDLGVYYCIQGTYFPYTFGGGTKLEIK
B20: huG14-124-8 (antibody, V domains shown)
VH: B2 VH
VL: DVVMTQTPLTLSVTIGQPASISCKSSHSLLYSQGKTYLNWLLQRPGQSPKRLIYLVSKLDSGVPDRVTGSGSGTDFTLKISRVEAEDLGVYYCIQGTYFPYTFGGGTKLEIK
B21: huG14-124-1 (antibody, V domains shown)
VH: B2 VH
VL: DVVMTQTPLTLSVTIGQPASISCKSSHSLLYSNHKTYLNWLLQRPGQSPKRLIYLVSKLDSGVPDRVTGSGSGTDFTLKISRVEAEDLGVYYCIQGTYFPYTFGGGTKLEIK
B22: huG14-124-3 (antibody, V domains shown)
VH: B2 VH
VL: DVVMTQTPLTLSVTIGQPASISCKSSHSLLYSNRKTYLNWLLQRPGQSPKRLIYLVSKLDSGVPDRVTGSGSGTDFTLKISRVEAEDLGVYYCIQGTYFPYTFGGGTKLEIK
B23: huG14-111 (antibody, V domains shown)
VH: B2 VH with G34M, Y104F
VL: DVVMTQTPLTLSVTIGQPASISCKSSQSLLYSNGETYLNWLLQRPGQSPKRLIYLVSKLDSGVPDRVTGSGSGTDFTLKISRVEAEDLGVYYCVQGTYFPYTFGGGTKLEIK
B24: huG14-107 (antibody, V domains shown)
VH: B2 VH with G34M
VL: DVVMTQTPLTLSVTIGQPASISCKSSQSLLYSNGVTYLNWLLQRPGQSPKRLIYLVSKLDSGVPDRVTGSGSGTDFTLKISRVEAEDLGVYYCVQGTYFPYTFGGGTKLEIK
B25: huG14-109 (antibody, V domains shown)
VH: B2 VH
VL: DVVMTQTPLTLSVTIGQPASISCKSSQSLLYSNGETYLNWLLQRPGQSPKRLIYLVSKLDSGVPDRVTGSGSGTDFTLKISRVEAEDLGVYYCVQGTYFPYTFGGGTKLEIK
B26: huG14-105 (antibody, V domains shown)
VH: B2 VH with G34M
VL: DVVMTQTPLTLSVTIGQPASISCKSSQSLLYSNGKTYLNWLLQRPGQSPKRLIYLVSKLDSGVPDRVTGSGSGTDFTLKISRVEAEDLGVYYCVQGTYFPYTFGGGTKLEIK
B27: huG14-110 (antibody, V domains shown)
VH: B2 VH with G34M, Y104N
VL: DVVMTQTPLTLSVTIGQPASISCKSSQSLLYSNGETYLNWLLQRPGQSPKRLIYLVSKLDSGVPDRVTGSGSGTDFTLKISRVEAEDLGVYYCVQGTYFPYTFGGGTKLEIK
B28: huG14-106 (antibody, V domains shown)
VH: B2 VH with G34M
VL: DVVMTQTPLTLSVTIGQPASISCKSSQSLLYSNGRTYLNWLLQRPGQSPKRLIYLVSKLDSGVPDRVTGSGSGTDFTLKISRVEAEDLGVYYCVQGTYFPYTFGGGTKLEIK
B29: huG14-104 (antibody, V domains shown)
VH: B2 VH with G34M
VL: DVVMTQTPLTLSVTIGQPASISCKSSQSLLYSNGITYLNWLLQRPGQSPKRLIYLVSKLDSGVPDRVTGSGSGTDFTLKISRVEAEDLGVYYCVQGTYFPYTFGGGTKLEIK
B30: huG14-108 (antibody, V domains shown)
VH: B2 VH with G34M
VL: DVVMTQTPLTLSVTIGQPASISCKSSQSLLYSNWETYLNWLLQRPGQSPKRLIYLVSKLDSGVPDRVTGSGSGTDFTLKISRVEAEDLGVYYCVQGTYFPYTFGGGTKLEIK
B31: huG14-101 (antibody, V domains shown)
VH: B2 VH with G34M
VL: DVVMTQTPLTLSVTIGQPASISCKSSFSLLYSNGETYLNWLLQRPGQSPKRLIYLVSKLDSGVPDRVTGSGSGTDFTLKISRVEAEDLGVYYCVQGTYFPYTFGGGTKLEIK
B32: huG14-102 (antibody, V domains shown)
VH: B2 VH with G34M
VL: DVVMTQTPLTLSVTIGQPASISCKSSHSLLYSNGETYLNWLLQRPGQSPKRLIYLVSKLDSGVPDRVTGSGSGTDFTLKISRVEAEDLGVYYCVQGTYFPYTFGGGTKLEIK
B33: huG14-103 (antibody, V domains shown)
VH: B2 VH with G34M
VL: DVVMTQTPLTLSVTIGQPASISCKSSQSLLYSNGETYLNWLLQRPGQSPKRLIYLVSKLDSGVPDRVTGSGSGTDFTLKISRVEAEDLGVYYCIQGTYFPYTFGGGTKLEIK

One assay concerns the target T1, CD24 (cell surface). Kind of assay: FACS, NALM6.
Regarding B1, the EC50 was 0.469 µg/mL and 0.217 µg/mL.
In the case of B2, the EC50 turned out to be 0.348 µg/mL.
B3 displayed an EC50 of 0.35 µg/mL.
Still for that read-out and setting: for B4 the value was 0.235 µg/mL; for B5, 0.256 µg/mL; for B6, 0.443 µg/mL.
On the same count and under the same terms, for B7 the value was 0.391 µg/mL; for B8, 0.609 µg/mL; for B9, 0.431 µg/mL.
Same read-out and setting: for B10 the value was 0.305 µg/mL.
Take B11: the EC50 was 0.184 µg/mL.
The same measure, in the same setting: for B12 the value was 7.3 µg/mL and 18.5 µg/mL.

A further assay has as its target CD24(27-56aa)-GST NEOX-4 (human). Briefly: ELISA.
B2 returned an EC50 of 0.00443 µg/mL.
B3 registered an EC50 of 0.00889 µg/mL.
B4 returned an EC50 of 0.00621 µg/mL.
B13 gave a 50% effective concentration (EC50) of 0.177 µg/mL.
The same measure, in the same setting: the result for B9 reads 0.0044 µg/mL.
The same measure, in the same setting: for B12 the value was 0.0366 µg/mL.

The next assay shares this target. Briefly: ELISA. This is another data set of the same source. On the technique in general: ELISA stands for enzyme-linked immunosorbent assay.
The molecule B6 showed an EC50 of 0.00619 µg/mL.
Still for that read-out and setting: the result for B13 reads 0.154 µg/mL; that for B8, 0.00406 µg/mL; that for B14, 0.00389 µg/mL.
The same measure, in the same setting: the result for B12 reads 0.031 µg/mL.

The next assay concerns the target T2, CD24 biotinylated (ACRO CD4-H82E9). Briefly: SPR. (In general: In SPR one partner is held on a chip, and binding of the other changes the refractive index at the surface.)
In turn, B15 returned a Kd of 1.58 nM.
Still for that read-out and setting: for B16 the value was 2.13 nM; for B17, 9.77 nM; for B18, 2.54 nM.
B19 showed a Kd of 1.07 nM.
Still for that read-out and setting: the result for B8 reads 19 nM.
Same read-out and setting: for B20 the value was 10.6 nM.
Same read-out and setting: the result for B21 reads 2.08 nM; that for B22, 1.52 nM.

A further assay addresses T1, CD24 (cell surface). Briefly: FACS, MDA-MB-468.
Take B2: the EC50 stood at 1.21 µg/mL.
On the same count and under the same terms, for B3 the value was 0.63 µg/mL; for B4, 0.484 µg/mL; for B5, 0.256 µg/mL.
Turning to B6, a half-maximal effect (EC50) was put at 0.684 µg/mL.
Take B7: the half-maximal effective concentration (EC50) was 0.57 µg/mL.
B8 had an EC50 of 0.827 µg/mL.
Still for that read-out and setting: for B9 the value was 0.676 µg/mL; for B10, 0.305 µg/mL; for B11, 0.184 µg/mL.

In another assay the target is T2, CD24 biotinylated (ACRO CD4-H82E9). Kind of assay: SPR. This is another data set of the same source.
The molecule B5 came in with a Kd of 7.58 nM.
In turn, B10 displayed a dissociation constant Kd of 3.62 nM.
Still for that read-out and setting: the result for B11 reads 2.69 nM; that for B12, 12.1 nM.

In the next assay the target is CD24(27-56aa)-GST NEOX-4 (human). Briefly: ELISA. This is another data set of the same source.
Chain of CD24(27-56aa)-GST NEOX-4 (human) (chain, as listed by the source): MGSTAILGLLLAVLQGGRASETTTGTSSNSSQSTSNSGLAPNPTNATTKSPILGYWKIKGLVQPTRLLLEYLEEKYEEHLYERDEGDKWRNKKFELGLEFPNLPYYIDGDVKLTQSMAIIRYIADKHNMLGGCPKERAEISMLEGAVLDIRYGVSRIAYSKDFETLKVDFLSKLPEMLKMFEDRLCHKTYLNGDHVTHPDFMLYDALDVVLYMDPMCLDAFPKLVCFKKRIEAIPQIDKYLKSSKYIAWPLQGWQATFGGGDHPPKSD
As to B23, the EC50 amounted to 0.0293 µg/mL.
Still for that read-out and setting: for B24 the value was 0.0494 µg/mL.
Regarding B25, the EC50 was 0.0109 µg/mL.
Still for that read-out and setting: for B26 the value was 0.0206 µg/mL; for B27, 0.0153 µg/mL.
Same read-out and setting: the result for B28 reads 0.0157 µg/mL; that for B29, 0.0183 µg/mL.
The molecule B30 showed an EC50 of 0.0784 µg/mL.
Still for that read-out and setting: for B31 the value was 0.0325 µg/mL.
Take B13: the EC50 is 0.136 µg/mL and 0.128 µg/mL.
Still for that read-out and setting: for B32 the value was 0.00961 µg/mL.
The same measure, in the same setting: the result for B33 reads 0.00813 µg/mL; that for B12, 0.0248 µg/mL and 0.00988 µg/mL.
